Results from patent US20210120790A1.

Columns and labels:
[1] = target: Endogenous mouse SIRPα of wildtype C57BL/6 mice (mouse (C57BL/6)) (UniProt P97797); experiment: flow cytometry; CD47 protein on peritoneal cavity cells of wildtype C57BL/6 mice, detected with human anti-CD47 antibody and AF647 anti-hIgG
[2] = target: Endogenous mouse SIRPα of wildtype BALB/c mice (mouse (BALB/c)) (UniProt P97797); experiment: flow cytometry; CD47 protein on peritoneal cavity cells of wildtype BALB/c mice, detected with human anti-CD47 antibody and AF647 anti-hIgG

Sequence of UniProt P97797 (P97797 32-513): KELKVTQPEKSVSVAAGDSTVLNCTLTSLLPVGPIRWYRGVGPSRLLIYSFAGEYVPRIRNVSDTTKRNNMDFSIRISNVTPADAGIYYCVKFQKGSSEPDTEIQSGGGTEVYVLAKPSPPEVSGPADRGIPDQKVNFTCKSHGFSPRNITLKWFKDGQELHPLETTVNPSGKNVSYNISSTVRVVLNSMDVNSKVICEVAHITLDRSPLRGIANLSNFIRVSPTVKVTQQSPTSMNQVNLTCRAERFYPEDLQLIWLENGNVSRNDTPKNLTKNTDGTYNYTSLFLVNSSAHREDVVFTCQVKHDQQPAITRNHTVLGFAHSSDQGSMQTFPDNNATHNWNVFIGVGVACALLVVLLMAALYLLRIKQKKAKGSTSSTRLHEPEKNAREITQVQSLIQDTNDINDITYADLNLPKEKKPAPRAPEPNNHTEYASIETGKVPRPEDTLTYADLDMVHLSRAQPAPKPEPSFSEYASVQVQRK

geometric mean of flow cytometry signal [1]: 100
geometric mean of flow cytometry signal [2]: 100
Substance: Mouse CD47 proteins (added to peritoneal cavity cells, Example 16) (ligand)
